One substance from publication PMC2987766 can be followed below.

Assay [1] concerns the target Recombinant perlecan domain I (PlnDI), undigested (UniProt Q05793). The assay can be described thus: far-Western, overlay or dot blot; solution phase, pH 6.0: PlnDI (5 ug) pre-incubated with 20 ng VEGF165 for 1 hr at room temperature (25 mM HEPES), then blotted onto nitrocellulose; bound VEGF165 detected with anti-VEGF165 antibodies; background subtracted.
Assay [2] addresses PlnDI pre-digested with a heparinase cocktail (heparinases I, II and III). Nature of the assay: far-Western, overlay or dot blot; solid phase: PlnDI, undigested or pre-digested with heparinase cocktail +/- chondroitinase ABC, immobilised on nitrocellulose and incubated with VEGF165; bound VEGF165 detected with VEGF monoclonal antibodies, densitometry; heparin 0.25 ug/ml for competitive inhibition.

In assay [3] the target is Recombinant perlecan domain I (PlnDI), undigested (UniProt Q05793). Described as above.
For assay [4] the target is unchanged. The assay can be described thus: far-Western, overlay or dot blot; solution phase, pH 7.0: PlnDI (5 ug), untreated or pre-digested with heparinase cocktail and/or chondroitinase ABC, pre-incubated with 20 ng VEGF165 for 1 hr at room temperature (25 mM HEPES), then blotted onto nitrocellulose; bound VEGF165 detected with anti-VEGF165 antibodies; background subtracted.

For “Recombinant human vascular endothelial growth factor-165 (ligand)”, the figures for the percent reduction of binding against pH 8.0 in assay [1] and in assay [4] were 80% and 50%, respectively. For the same substance, in assay [2], the percent reduction of binding against undigested PlnDI came to 75%. Moreover, the percent of binding prevented by heparin 0.25 ug/ml in assay [3] turned out to be 80%.
